The results in this text go back to PMC11937023.

In this experiment the target is endogenous CD64 (FcγRI) on primary human myeloid cells (human (endogenous in primary human monocytes)) (UniProt P12314).
UniProt P12314, sequence (P12314 16-374): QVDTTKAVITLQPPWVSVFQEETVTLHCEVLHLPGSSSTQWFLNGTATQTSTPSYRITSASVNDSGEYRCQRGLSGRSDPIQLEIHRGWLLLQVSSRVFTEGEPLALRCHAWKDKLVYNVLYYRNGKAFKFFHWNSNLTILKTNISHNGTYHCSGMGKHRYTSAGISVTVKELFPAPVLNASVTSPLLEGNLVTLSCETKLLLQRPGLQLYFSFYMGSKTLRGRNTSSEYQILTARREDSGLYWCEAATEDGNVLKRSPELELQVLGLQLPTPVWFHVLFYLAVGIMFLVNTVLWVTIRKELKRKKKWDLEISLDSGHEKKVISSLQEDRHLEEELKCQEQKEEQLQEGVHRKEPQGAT

The substance “guselkumab modified to contain LALA mutations in the Fc domain (antibody)” displayed an IC50 for inhibiting IL-23 signaling (luciferase in IL-23 reporter cells) in co-culture with R848-stimulated, IFNγ-primed CD64+ THP-1 cells, 16 hours of 0.477 nM.

guselkumab (antibody) showed an IC50 for inhibiting IL-23 signaling (luciferase in IL-23 reporter cells) in co-culture with R848-stimulated, IFNγ-primed CD64+ THP-1 cells, 16 hours of 0.092 nM.
